The target of data set [1] is FrzCD^ΔH2 (Myxococcus xanthus) (UniProt P43500). Kind of data set: SEC-MALS; no DNA; Superdex 200 Increase 10/300, 50 mM NaCl, 50 mM Tris pH 8.0, about 25°C; 100 μL injected at 45 and 150 μM (FrzCD), 70 and 200 μM (ΔMA), 25 μM (ΔH1ΔH2), 25 and 65 μM (ΔH2), 25 μM (ΔH1). A general note: Size exclusion chromatography separates by hydrodynamic size, large species first.
In data set [2] the target is FrzCD^ΔMA (Myxococcus xanthus) (UniProt P43500). Nature of the data set: SEC-MALS; with 35 bp DNA in the injected sample: 70 μM FrzCD with 30 μM DNA; 200 μM FrzCD with 100 μM DNA; 200 μM ΔMA with 100 μM DNA; 100 μM ΔH2 with 50 μM DNA.
For data set [3] the target is unchanged. Nature of the data set: SEC-MALS; no DNA; Superdex 200 Increase 10/300, 50 mM NaCl, 50 mM Tris pH 8.0, about 25°C; 100 μL injected at 45 and 150 μM (FrzCD), 70 and 200 μM (ΔMA), 25 μM (ΔH1ΔH2), 25 and 65 μM (ΔH2), 25 μM (ΔH1).
Data set [4] deals with FrzCD^ΔH1ΔH2 (Myxococcus xanthus) (UniProt P43500). Described as above.
Data set [5] has as its target T1, FrzCD (EMSA/SEC-MALS) (Myxococcus xanthus, UniProt P43500 1-417).
T1 sequence: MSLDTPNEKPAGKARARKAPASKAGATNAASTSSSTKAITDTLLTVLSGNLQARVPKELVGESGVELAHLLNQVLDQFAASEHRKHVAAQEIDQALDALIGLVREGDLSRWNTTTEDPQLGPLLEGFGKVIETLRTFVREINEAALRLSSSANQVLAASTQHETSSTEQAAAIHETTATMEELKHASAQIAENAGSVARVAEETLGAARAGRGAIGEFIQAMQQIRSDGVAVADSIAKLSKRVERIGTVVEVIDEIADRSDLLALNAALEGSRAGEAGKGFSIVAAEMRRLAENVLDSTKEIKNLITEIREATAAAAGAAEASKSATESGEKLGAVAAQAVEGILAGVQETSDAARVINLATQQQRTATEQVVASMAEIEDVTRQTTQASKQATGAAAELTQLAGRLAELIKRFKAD
Kind of data set: EMSA; EMSA: 50 mM Tris pH 7.4, 50 mM NaCl, 1 mM DTT, 10% glycerol, 25 C, 30 min, 0.5-2 uM DNA; BLI: 10 mM Tris pH 7.4, 150 mM NaCl, 25 C, 5 nM DNA. Particulars: protein: recombinant, tags: C-terminal His6 (pHis17), chain copies: 2.

Data set [6] has as its target T2, His6-FrzCDΔH1ΔH2 (BLI) (Myxococcus xanthus, UniProt P43500 1-417, del31-136).
T2 sequence: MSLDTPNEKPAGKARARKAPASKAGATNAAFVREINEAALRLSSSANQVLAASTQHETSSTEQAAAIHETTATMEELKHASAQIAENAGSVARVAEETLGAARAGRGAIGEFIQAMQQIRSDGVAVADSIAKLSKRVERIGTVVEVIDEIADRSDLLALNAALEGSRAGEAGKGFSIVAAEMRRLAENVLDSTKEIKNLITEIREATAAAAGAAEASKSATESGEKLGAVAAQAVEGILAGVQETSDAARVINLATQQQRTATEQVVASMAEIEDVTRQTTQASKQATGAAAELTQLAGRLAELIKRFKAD
Nature of the data set: BLI; EMSA: 50 mM Tris pH 7.4, 50 mM NaCl, 1 mM DTT, 10% glycerol, 25 C, 30 min, 0.5-2 uM DNA; BLI: 10 mM Tris pH 7.4, 150 mM NaCl, 25 C, 5 nM DNA. The conditions noted are these: protein: recombinant; tags: N-terminal His6 (pETphos); label: 5' biotin on forward strand; blunt. A general note: BLI is a label-free optical method that tracks binding on a fibre tip over time.

Data set [7] concerns the target T3, His6-FrzCD (BLI) (Myxococcus xanthus, UniProt P43500 1-417).
T3 sequence: T1 sequence
The description is as above. Particulars: protein: recombinant; tags: N-terminal His6 (pETphos); label: 5' biotin on forward strand; blunt.

Data set [8] addresses T4, His6-FrzCDΔH2 (BLI) (Myxococcus xanthus, UniProt P43500 1-417, del84-136).
T4 sequence: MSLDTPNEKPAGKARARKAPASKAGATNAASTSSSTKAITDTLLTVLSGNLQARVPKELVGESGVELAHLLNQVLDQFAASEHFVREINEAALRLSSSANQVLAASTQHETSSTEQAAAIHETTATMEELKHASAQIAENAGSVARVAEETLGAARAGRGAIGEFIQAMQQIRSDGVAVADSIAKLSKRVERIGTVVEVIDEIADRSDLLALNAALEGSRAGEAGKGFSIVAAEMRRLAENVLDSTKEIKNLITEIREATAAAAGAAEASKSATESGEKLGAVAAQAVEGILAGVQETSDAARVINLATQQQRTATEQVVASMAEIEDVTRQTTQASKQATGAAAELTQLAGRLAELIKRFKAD
Described as above. Particulars: protein: recombinant; tags: N-terminal His6 (pETphos); label: 5' biotin on forward strand; blunt.

The target of data set [9] is T1, FrzCD (EMSA/SEC-MALS). Nature of the data set: SEC-MALS; high-order oligomers at 200 uM protein, 100 uM DNA; EMSA: 50 mM Tris pH 7.4, 50 mM NaCl, 1 mM DTT, 10% glycerol, 25 C, 30 min, 0.5-2 uM DNA; BLI: 10 mM Tris pH 7.4, 150 mM NaCl, 25 C, 5 nM DNA. Particulars: protein: recombinant; tags: C-terminal His6 (pHis17); chain copies: 2; blunt.
Data set [10] addresses T5, FrzCDΔH1 (EMSA) (Myxococcus xanthus, UniProt P43500 1-417, del32-83).
T5 sequence: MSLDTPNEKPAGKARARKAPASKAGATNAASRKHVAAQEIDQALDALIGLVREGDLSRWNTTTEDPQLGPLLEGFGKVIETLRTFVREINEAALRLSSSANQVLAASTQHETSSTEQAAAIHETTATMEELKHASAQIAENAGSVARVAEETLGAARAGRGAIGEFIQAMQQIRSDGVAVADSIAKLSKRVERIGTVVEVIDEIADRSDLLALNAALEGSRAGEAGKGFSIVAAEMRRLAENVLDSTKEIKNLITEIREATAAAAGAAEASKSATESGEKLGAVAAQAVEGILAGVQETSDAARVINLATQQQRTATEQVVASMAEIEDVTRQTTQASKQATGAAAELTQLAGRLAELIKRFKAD
Nature of the data set: EMSA; EMSA: 50 mM Tris pH 7.4, 50 mM NaCl, 1 mM DTT, 10% glycerol, 25 C, 30 min, 0.5-2 uM DNA; BLI: 10 mM Tris pH 7.4, 150 mM NaCl, 25 C, 5 nM DNA. Particulars: protein: recombinant; tags: C-terminal His6 (pHis17); blunt. In general terms: Mobility shift assays separate free from complexed probe on a gel.

In data set [11] the target is T6, FrzCDΔH1ΔH2 (EMSA) (Myxococcus xanthus, UniProt P43500 1-417, del32-136).
T6 sequence: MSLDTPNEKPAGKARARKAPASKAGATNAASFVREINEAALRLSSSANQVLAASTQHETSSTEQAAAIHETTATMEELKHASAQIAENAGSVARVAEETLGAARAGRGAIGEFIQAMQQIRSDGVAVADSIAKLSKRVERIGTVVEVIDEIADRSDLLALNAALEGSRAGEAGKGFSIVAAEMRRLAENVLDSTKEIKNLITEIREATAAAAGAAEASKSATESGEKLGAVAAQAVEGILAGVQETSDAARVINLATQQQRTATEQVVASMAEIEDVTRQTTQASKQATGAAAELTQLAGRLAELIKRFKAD
The data set is described as above. Particulars: protein: recombinant; tags: C-terminal His6 (pHis17); blunt.

The target of data set [12] is T7, FrzCDΔH2 (EMSA/SEC-MALS) (Myxococcus xanthus, UniProt P43500 1-417, del84-136).
T7 sequence: T4 sequence
The description is as above. The conditions noted are these: protein: recombinant; tags: C-terminal His6 (pHis17); blunt.

Data set [13] concerns the molecule itself. Nature of the data set: SEC-MALS; no DNA; Superdex 200 Increase 10/300, 50 mM NaCl, 50 mM Tris pH 8.0, about 25°C; 100 μL injected at 45 and 150 μM (FrzCD), 70 and 200 μM (ΔMA), 25 μM (ΔH1ΔH2), 25 and 65 μM (ΔH2), 25 μM (ΔH1).

What is called stoichiometry N is a count of units in the complex or per binding partner. In general, Kd refers to the concentration at which binding is half-saturated.

In the case of “FrzCD^ΔH2 (from UniProt P43500 1-417) (receptor)”, in data set [1], the stoichiometry N is 4.
Regarding “FrzCD^ΔMA (from UniProt P43500 1-136) (domain or fragment)”, the stoichiometry N in [2] and in [3] was 2 each time.
Molecule “FrzCD^ΔH1ΔH2 (from UniProt P43500 1-417) (receptor)” showed a stoichiometry N in [4] of 4.

B1: 8-base poly-A ssDNA (ssDNA)
DNA: AAAAAAAA
B1: the binding result in data set [5] is “binds”.

B2: 178 bp DNA (dsDNA)
DNA 1: GGATCGCATCTGCCTACATCCCCAGCTCCCGGTCGGTCCGCTCGGAACCTAGCCCGGGTCAAAGACCCGGGGTCTATGTTGACCCATTTGGTGGGGATGGGTCTAATTGGACCTGGCGTTTTTTCGCGCCATGGAAATGTCAAGGCCCGTGATTCCAGACTGTTGGGCAGGGAGTT
DNA 2: AACTCCCTGCCCAACAGTCTGGAATCACGGGCCTTGACATTTCCATGGCGCGAAAAAACGCCAGGTCCAATTAGACCCATCCCCACCAAATGGGTCAACATAGACCCCGGGTCTTTGACCCGGGCTAGGTTCCGAGCGGACCGACCGGGAGCTGGGGATGTAGGCAGATGCGATCC
Turning to B2, the Kd in data set [6] came out at 210 nM; in data set [7], 650 nM; in data set [8] it was 1730 nM.

B3: 35 bp DNA (dsDNA)
DNA 1: GTCACCTGCTCTAGCTAATAGACTGAGCCGAGGTG
DNA 2: CACCTCGGCTCAGTCTATTAGCTAGAGCAGGTGAC
On to B3, for which the binding result in data set [9], in [10], in data set [11] and in data set [12] was “binds” in each case.

B4: FrzCD^ΔH1 (receptor, Myxococcus xanthus, UniProt P43500 1-417, looked up)
chain: MSLDTPNEKPAGKARARKAPASKAGATNAARKHVAAQEIDQALDALIGLVREGDLSRWNTTTEDPQLGPLLEGFGKVIETLRTFVREINEAALRLSSSANQVLAASTQHETSSTEQAAAIHETTATMEELKHASAQIAENAGSVARVAEETLGAARAGRGAIGEFIQAMQQIRSDGVAVADSIAKLSKRVERIGTVVEVIDEIADRSDLLALNAALEGSRAGEAGKGFSIVAAEMRRLAENVLDSTKEIKNLITEIREATAAAAGAAEASKSATESGEKLGAVAAQAVEGILAGVQETSDAARVINLATQQQRTATEQVVASMAEIEDVTRQTTQASKQATGAAAELTQLAGRLAELIKRFKAD
notes: FrzCD of Myxococcus xanthus with the HAMP1 domain (H1, residues 31 to 83) deleted; The limits of the deletion are the printed limits of the domain; The tag is that of the pHis17 constructs; source: E. coli (BL21-AI, BL21-DE3 or C43), purified (HisTrap, ion exchange)
As for B4, the “stoichiometry N” value in data set [13] was found to be 4.

B5: FrzCD full-length (receptor, Myxococcus xanthus, UniProt P43500 1-417, looked up)
chain: T1 sequence
notes: FrzCD, cytoplasmic methyl-accepting chemotaxis protein of Myxococcus xanthus; DB 1-30, H1 31-83, H2 84-136, MA 137-417; The C-terminal hexa-histidine tag is that of the pHis17 constructs; also called His6-FrzCD; wild type; source: E. coli (BL21-AI, BL21-DE3 or C43), purified (HisTrap, ion exchange)
B5: in [13], the “stoichiometry N” value worked out at 2.

B6: 8 bp DNA (dsDNA)
DNA 1: ACTGCAGT
DNA 2: ACTGCAGT
Regarding B6, the binding result in [5] (blunt) was “binds”.

Values taken from PMC12077210, “Di-HAMP domains of a cytoplasmic chemoreceptor modulate nucleoid array formation and downstream signaling” (mBio, 2024).
